Data published in publication PMC2199927.

Biological target: c-myc-tagged Sec8 (S. cerevisiae) (UniProt P32855)
Assay: co-IP

B1: Sec4 (natural protein)
chain: MSGLRTVSASSGNGKSYDSIMKILLIGDSGVGKSCLLVRFVEDKFNPSFITTIGIDFKIKTVDINGKKVKLQLWDTAGQERFRTITTAYYRGAMGIILVYDVTDERTFTNIKQWFKTVNEHANDEAQLLLVGNKSDMETRVVTADQGEALAKELGIPFIESSAKNDDNVNEIFFTLAKLIQEKIDSNKLVGVGNGKEGNISINSGSGNSSKSNCC
percent of the total Sec4 associated (limit of detection): < 0.07%
